Where two headings read alike, the source gives them in different places. Positions of bridges follow the written chain, without caps; N, C: chain ends. Non-standard residues stand in square brackets, D forms with d. Residues, ends and D or L forms follow the SMILES beside them. Chains are numbered I, II in the order given. *: point of attachment. DOTA = O=C(O)CN1CCN(CC(=O)O)CCN(CC(=O)*)CCN(CC(=O)O)CC1; PEG4 = NCCOCCOCCOCCOCCC(=O)O Some results are limits rather than exact numbers.

Data set [1] in a line: In vitro stability in saline/PBS at room temperature (radiochemical purity). In kind it is physicochemical. The following applies: ~3.7 MBq tracer in saline (method: PBS), 3 h of incubation, radio-HPLC.
Description: A volume of 80 μL 1 mol/L HEPES (pH 5.0) was added to 200 μL ^68GaCl3 (37-74 MBq) eluent, and then the mixture was incubated with 40 μL DOTA-c(NGR)2 stock solution in a water bath at 95°C for 10 min. Quality control was performed by radio-HPLC (Agilent Technologies, Santa Clara, CA, USA) with a VP-ODS C18 column (Shimadzu, Kyoto, Japan) and an online radioactivity detector (Zonkia Scientific Instruments Co., Ltd., Anhui Province, China). The mobile phase was composed of solvent A, 0.1% trifluoroacetic acid (TFA) in water, and solvent B, 0.1% TFA in acetronitrile. The flow rate was set at 1 mL/min, and the UV wavelength was set at 220 nm. The mobile phase was gradiently changed from 20% solvent B to 30% solvent B in 20 min.
To evaluate the in vitro stability, ~3.7 MBq of ^68Ga-DOTA-c(NGR)2 was incubated in phosphate-buffered saline (PBS) at room temperature or bovine serum at 37 °C, respectively. The radiochemical purity was determined at time points of 30 min and 1, 2 and 3 h.
The test system of the next data set is ES2 cells. Description: In vitro cell binding/uptake assay, ES2 cells. In kind it is cell-based, human. The following applies: 37 KBq per well, 37°C.
The subject of a further data set is SKOV3 cells. Description: In vitro cell binding/uptake assay, SKOV3 cells. It counts as cell-based, human. The following applies: 37 KBq per well, 1×10^6 cells/well, 37°C, time points 5 min to 2 h, gamma counter, mean ± SD.
The nature of data set [2]: MicroPET imaging and blocking, ES2 tumor-bearing nude mice. The following applies: female, BALB/c nude, mouse, in vivo, iv, total radioactivity. On the procedure: (§1) The human OVCA ES2 and SKOV3 cells were obtained from Nanjing Keygen Biotech Co., Ltd. (Nanjing, China). ES2 cells were maintained as monolayer cultures in McCoy's medium 5A supplemented with 10% fetal bovine serum (FBS), and SKOV3 cells were cultured in RPMI-1640 medium supplemented with 10% FBS. Both cell lines were incubated at 37°C in a humidified atmosphere containing 5% CO2. Cells in log phase were harvested by trypsinization, washed with PBS twice and adjusted to 5×10^7/mL in PBS. A volume of 0.1 mL single-cell suspension was subcutaneously injected into the front flank of each female […] nude mouse (~4-6 weeks old, body weight of 18-25 g; Slac Laboratory Animal, Shanghai, China). Animal models were used for PET imaging experiments when xenografts grew to 500-1,000 mm^3. All animal-related studies were approved by the Institutional Animal Care and Use Committee of Soochow University.
(§2) Two groups of female Balb/c nude mice (n=6/group) bearing ES2 tumors were used to conduct static microPET imaging with an Inveon microPET scanner (Siemens Medical Solutions, Erlangen, Germany). The first group was injected with 7.4 MBq ^68Ga-DOTA-c(NGR)2 via tail vein under anesthesia with 1%-2% isoflurane, and a series of static image data, 10 min for each time point, were collected at 30 min, 1, 1.5, and 2 h post injection. For blocking studies, the second group of mice was injected with 100 μg unlabeled peptide in 100 μL saline via tail vein, immediately followed by administration of ^68Ga-DOTA-c(NGR)2, and then images were acquired at 30 min, 1, 1.5 and 2 h post-injection, each for 10 min. The obtained images were processed using Siemens Inveon Research Workplace 4.0 (IRW 4.0) and reconstructed using three-dimensional ordered-subset expectation maximization. Regions of interest (ROIs) were drawn over the tumor (T) and muscle of the contralateral forelimb, and the latter served as the background (B). Moreover, %ID/g of tumors and the T/B ratio were determined. The same studies were repeated in female Balb/c nude mice bearing SKOV3 tumors without the blocking experiments.

Data set [3] in a line: in vivo. As to conditions: female, BALB/c nude, mouse, iv, 7.4 MBq, total radioactivity. On the procedure: as §1, §2
The nature of data set [4]: in vivo. As to conditions: ICR, mouse, iv, 3.7 MBq, total radioactivity.
Description: (§3) Biodistribution studies were performed using 30 normal ICR (Institute of Cancer Research) mice (18-30 g; age, 4 weeks). […] The blood, muscle and other organs of interest (brain, heart, liver, lungs, spleen, pancreas, kidneys, stomach, small intestine and femur) were immediately harvested, weighed and counted with a gamma counter. Data were normalized to the time of injection and expressed as percent injected dose per gram (% ID/g).

Description for normal ICR mice: as §3

In the case of `N=C(N)NCCC[C@@H]1NC(=O)CNC(=O)[C@H](CC(N)=O)NC(=O)[C@@H](NC(=O)CCOCCOCCOCCOCCNC(=O)CC[C@H](NC(=O)CCOCCOCCOCCOCCNC(=O)CN2CCN(CC(=O)O)CCN(CC(=O)O)CCN(CC(=O)O)CC2)C(=O)NCCOCCOCCOCCOCCC(=O)N[C@H]2CSSC[C@@H](C(=O)N[C@@H](Cc3ccc(O)cc3)C(=O)O)NC(=O)[C@H](CCCNC(=N)N)NC(=O)CNC(=O)[C@H](CC(N)=O)NC2=O)CSSC[C@@H](C(=O)N[C@@H](Cc2ccc(O)cc2)C(=O)O)NC1=O` [^68Ga-DOTA-c(NGR)2, metal not drawn] (I: {DOTA-PEG4}-E[PEG4]CNGRCY-OH / II: [PEG4]CNGRCY-OH; amide I:1-II:N; disulfide I:3-I:7, II:2-II:6), in data set [1], the “radiochemical purity after incubation in saline” value was > 96%. Besides, the “highest binding to ES2 cells” value in the data set with ES2 cells (1×10^6 cells/well, after 2 h of incubation, gamma counter, mean ± SD) was 3.00% ± 0.59. In the data set on ES2 cells, the “time to almost saturated binding to ES2 cells” value is reported as ≤ 30 min. For the same molecule, in the data set on SKOV3 cells, the “highest binding to SKOV3 cells” value is 1.79% ± 0.34. Besides, the tissue uptake at 1 h in data set [2] (7.4 MBq) was found to be 0.62 ± 0.09 %ID/g; in data set [2] (microPET, 100 μg unlabeled peptide i.v. immediately before tracer, 1 h post-injection, n=6, mean ± SD, read-out: uptake in ES2 tumors in the blocking experiment), 0.16 ± 0.03 %ID/g; in “in vivo [3]”, 0.32 ± 0.03 %ID/g; in “in vivo [4]” (blood) it was 0.31 ± 0.05 %ID/g. In addition, the tissue uptake at 1.5 h was determined as 0.53 ± 0.08 %ID/g in data set [2] (7.4 MBq); 0.14 ± 0.02 %ID/g in data set [2] (microPET, 100 μg unlabeled peptide i.v. immediately before tracer, 1.5 h post-injection, n=6, mean ± SD, read-out: uptake in ES2 tumors in the blocking experiment); 0.24 ± 0.05 %ID/g in “in vivo [3]”. Moreover, the tissue to tissue ratio at 1 h in data set [2] was determined as 10.3 ± 0.26; in the data set “in vivo [3]”, 3.99 ± 0.18. Moreover, the values for the tissue to tissue ratio at 1.5 h (in data set [2]; in “in vivo [3]”) were 8.04 ± 1.75 and 4.24 ± 0.73, respectively. For the same molecule, the “decrease of kidney uptake from peak” value in the data set on normal ICR mice (30 min post-injection versus 5 min) is “more than 50%”; with normal ICR mice (120 min post-injection versus 5 min), > 85%. For the same molecule, the tissue uptake at 5 min in “in vivo [4]” (blood) was determined as 7.44 ± 1.64 %ID/g; in “in vivo [4]” (kidney), 16.7 ± 5.8 %ID/g.

These data come from publication PMC7738837, “Synthesis and evaluation of ^68Ga-labeled dimeric cNGR peptide for PET imaging of CD13 expression with ovarian cancer xenograft” (Journal of Cancer, 2021).
